Assay results as given in US20140010797, “Fusion Molecules of Rationally-Designed DNA-Binding Proteins and Effector Domains” (DUKE UNIVERSITY, published 2014).

Molecular target: T1, CCR2REP (Artificial Sequence, UniProt P05725 SEQ:11-173)
T1 chain: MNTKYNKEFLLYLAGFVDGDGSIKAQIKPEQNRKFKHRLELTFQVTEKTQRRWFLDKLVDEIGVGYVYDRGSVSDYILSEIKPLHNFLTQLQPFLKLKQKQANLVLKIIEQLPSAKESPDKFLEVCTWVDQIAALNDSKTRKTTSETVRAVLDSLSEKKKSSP
Experiment: cell_activity; LacZ reporter with truncated CMV promoter, HEK 293
Conditions: tags: N-terminal SV40 NLS, C-terminal Kid-1 KRAB; chain copies: 2
Description: An E. coli beta-galactosidase (LacZ) gene was inserted into the mammalian expression vector pCI (Promega) between PstI and NotI. In this plasmid, LacZ expression is driven by a truncated CMV promoter (corresponding to the 3′ 442 bp of the canonical CMV promoter, SEQ ID NO: 47). A CCR2 recognition sequence (SEQ ID NO: 45) was then inserted at the 5′ end of this promoter (see FIG. 6A).
HEK 293 cells (1×10⁵) were transfected first with either the pCI empty vector or pCI carrying the CCR2REP gene under the control of a constitutive CMV promoter using Lipofectamine 2000 according to the manufacturer's instructions (Invitrogen). 6 hours post-transfection, transfection complexes were removed and replaced with fresh media. 24 hours post-transfection, the cells were re-transfected with the LacZ reporter plasmid using Lipofectamine 2000. As a measure of transfection efficiency, additional cells were transfected at both time points with pCI eGFP. […]
Lysates from transfected cells were subjected to a standard o-nitrophenyl-β-D-galactoside (ONPG) assay (Current Protocols in Molecular Biology. ed. V. B. Chanda. Vol. 2. 2004, John Wiley & Sons, Inc). […] The reaction was stopped with 500 μL 1M Na₂CO₃ after one hour, and the absorbance at 420 nm was measured using a NanoDrop ND-1000 spectrophotometer. β-galactosidase activity was determined using standard equations.

B1: CCR2 palindrome (dsDNA)
DNA 1: AGGCATCTCGTACGAGATGCCT
DNA 2: AGGCATCTCGTACGAGATGCCT
- activity: ~2.6 fold repression
